Laboratory results published in article PMC1869045 (Journal of thrombosis and haemostasis : JTH, 2007).

Target: the molecule itself
Assay: FRET or BRET

B1: GPVI BRET pair (GPVI-GFP and GPVI-luciferase) (receptor, UniProt Q9HCN6 21-339, looked up)
chain: QSGPLPKPSLQALPSSLVPLEKPVTLRCQGPPGVDLYRLEKLSSSRYQDQAVLFIPAMKRSLAGRYRCSYQNGSLWSLPSDQLELVATGVFAKPSLSAQPGPAVSSGGDVTLQCQTRYGFDQFALYKEGDPAPYKNPERWYRASFPIITVTAAHSGTYRCYSFSSRDPYLWSAPSDPLELVVTGTSVTPSRLPTEPPSPVAEFSEATAELTVSFTNEVFTTETSRSITASPKESDSPAGPARQYYTKGNLVRICLGAVILIILAGFLAEDWHSRRKRLRHRGRAVQRPLPPLPPLPLTRKSNGGQDGGRQDVHSRGLCS
Q: How did the “stoichiometry N” value turn out when B1 was run?
A: 2
